Results published in article doi:10.1101/2022.12.06.519258 (bioRxiv, 2022).

B1: Nanobody Nb77 (VHH)
VHH: QVQLVESGGGLVQPGGSLRLSCAASRSISSINIMGWYRQAPGKERESVASHTRDGSTDYADSVKGRFTISRDNAKNTVYLQMNSLKPEDTAVYYCTTLTGFPRIRSWGQGTQVTVSS

Experiments:
[1] = target: human KRAS^G12V (residues 1-169) (human) (UniProt P01116); assay: stopped-flow fluorescence kinetics
[2] = target: human SOS1 (residues 564-1049), SOS1^cat (Homo sapiens, UniProt Q07889, labelled with Alexa488 for flow cytometry (SOS1-488)); assay: BLI

fold decrease of KD1 with Nb22 against SOS1 alone [1] [fold] | fold increase of k1 (kon) with excess Nb22 against SOS1 alone [1] [fold] | kon [1] [M⁻¹ s⁻¹] | ratio of k-1 (koff) with Nb14 to SOS1 alone [1] [fold] | Kd [2] [nM] | Molecule
3.1 | 4 | 4.2e+06 | 0.3 | – | human SOS1 (residues 564-1049), SOS1^cat (from UniProt Q07889 564-1049) (domain or fragment)
– | – | – | – | 70 ± 10 | B1
